The labels stand for the following.
B1: F1*; the commonest letter at each place (parent)
chain: GAGACCGCAACTGAAAAGTTGTTATCACTTGTCGTAAGACACTTTGGATGGGTTGAAGTTCTGCACGTAGAAGCAAAAGGC

The series covers variants of B1. Briefly: fraction ligated after 30 min (ligated reads / total reads); higher = more ligase activity. The settings on record: with F1*sub RNA substrate (template-directed ligation), 42 °C. Summed up: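 The ligase ribozyme variants were produced by PCR amplification of oligo-pool templates, T7 transcription and purification on gel. Their ligated and unligated forms were gel-separated, then reverse transcribed with barcoded primers before MiSeq sequencing. Core bases were filtered at a quality of ≥20, and fraction ligated per variant was ligated reads over total reads.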
For T23G G31C, the fraction ligated was 0.849.

T29G T49A: the fraction ligated was determined as 0.753.

Turning to C26G T32C, the fraction ligated worked out at 0.245.

Consider A24G C42T, for which the fraction ligated was 0.802.

As for C28G A37C, the fraction ligated amounted to 0.766.

With T43C T49A, the fraction ligated was 0.638.

Turning to A24T A57G, the fraction ligated stood at 0.729.

Consider T32A G55C, for which the fraction ligated worked out at 0.562.

Regarding C26G A37T, the fraction ligated amounted to 0.707.

In the case of T35G A36G, the fraction ligated worked out at 0.845.

As for G38C T49G, the fraction ligated is 0.255.

In the case of T30A A48T, the fraction ligated came to 0.671.

For the variant C28T G50A, the fraction ligated came to 0.352.

With G34A A48C, the fraction ligated was 0.772.

Turning to C33A A37C, the fraction ligated turned out to be 0.859.

Regarding C33A A37G, the fraction ligated amounted to 0.872.

Regarding A36T A41C, the fraction ligated was 0.774.

For the variant C28A A41T, the fraction ligated worked out at 0.827.

As to C26A T45A, the fraction ligated was 0.366.

As for C40G A48T, the fraction ligated was found to be 0.715.

For C26G T45C, the fraction ligated was 0.00783.

On to C26G T44C, for which the fraction ligated turned out to be 0.731.

On to T30G G31C T32G A39C C40G A41C, for which the fraction ligated was found to be 0.85.

For the variant C42G G50C, the fraction ligated was 0.27.

With T30A C42A, the fraction ligated was 0.815.

Consider T23C C28T, for which the fraction ligated was determined as 0.777.

Regarding T25C A37G, the fraction ligated was 0.812.

As to T32G A39G, the fraction ligated is 0.819.

As for A36T G55A, the fraction ligated came to 0.842.

As for T30A G34T, the fraction ligated amounted to 0.802.

G50C A56C: the fraction ligated is 0.00754.

For the variant A39G T49G, the fraction ligated amounted to 0.791.

Turning to G38A G55A, the fraction ligated was found to be 0.838.

Regarding T23C T25A, the fraction ligated was determined as 0.582.

In the case of T29G T43C, the fraction ligated came to 0.817.

As for T30A A36T, the fraction ligated turned out to be 0.823.

For A24T T49G, the fraction ligated came out at 0.783.

Turning to T23C A41G, the fraction ligated stood at 0.784.

As to G38T G46T, the fraction ligated amounted to 0.782.

On to G38T A48C, for which the fraction ligated stood at 0.757.

Turning to A24G T25G, the fraction ligated came to 0.368.

For T44C T45C, the fraction ligated was 0.747.

In the case of G55T A56C A57T, the fraction ligated came to 0.0111.

As to C28A G47C, the fraction ligated turned out to be 0.302.

Regarding T23G G50T, the fraction ligated stood at 0.728.

Turning to A27C T43A, the fraction ligated came out at 0.844.

On to G34T G50C, for which the fraction ligated was determined as 0.396.

For the variant G46A G50A, the fraction ligated came to 0.0565.

Turning to C28A T35A, the fraction ligated worked out at 0.792.

On to G38A T44C, for which the fraction ligated came to 0.818.

On to G46A, for which the fraction ligated came to 0.812.

As to T23G T30C, the fraction ligated was found to be 0.765.

On to C33G G47T, for which the fraction ligated was determined as 0.409.

With T25C C26T, the fraction ligated was 0.813.

For the variant G34T C42A, the fraction ligated worked out at 0.849.

Regarding A24G G47C, the fraction ligated came out at 0.0125.

In the case of T23C T44G, the fraction ligated came to 0.779.

Take A27C C42A: the fraction ligated worked out at 0.818.

For the variant G31T G46T, the fraction ligated stood at 0.769.

With A24G G46A, the fraction ligated worked out at 0.803.

A27G T32A: the fraction ligated came to 0.795.

T44G G46A: the fraction ligated amounted to 0.818.

For G46A A56G, the fraction ligated was found to be 0.487.

T25A A41G: the fraction ligated came out at 0.419.

Consider T25C G38A, for which the fraction ligated amounted to 0.803.

Regarding A36C A57C, the fraction ligated came out at 0.813.

With T44A T45G, the fraction ligated was found to be 0.187.

Regarding T25C G47A, the fraction ligated came out at 0.734.

Regarding C42A T45G, the fraction ligated was 0.282.

T49G A56T: the fraction ligated turned out to be 0.191.

Turning to T35A G55C, the fraction ligated was 0.819.

Turning to T35A G55T, the fraction ligated turned out to be 0.834.

Regarding A39C C42G, the fraction ligated is 0.834.

With A39C C42A, the fraction ligated is 0.842.

With A36T T43A, the fraction ligated stood at 0.841.

Consider A41T G50A, for which the fraction ligated worked out at 0.342.

On to T23C G46T, for which the fraction ligated worked out at 0.614.

Turning to A41C T49A, the fraction ligated worked out at 0.178.

Regarding A39G T44G, the fraction ligated was 0.836.

Consider T45G A48T, for which the fraction ligated is 0.187.

Take A37T A48G: the fraction ligated stood at 0.804.

Regarding T30C T44C, the fraction ligated turned out to be 0.803.

On to T23A C42G, for which the fraction ligated is 0.822.

With T23C A24C, the fraction ligated is 0.73.

Source of the values: the supplement of paper PMC6755084.
